This assay addresses T1, Oregon Green-labeled EMB1579 (Arabidopsis thaliana, UniProt F4IS91-1 1-1340, Oregon Green label (site not stated)).
T1 construct: full-length CDS amplified from seedling cDNA; phase-separated in F-buffer in the assay; also called Oregon Green-EMB1579; EMB1579 condensates; source: Sf9 insect cells (pFastBac1-EMB1579), purified (Ni-NTA, SuperDex 200 Increase), labelled with Oregon Green
T1 sequence (looked up): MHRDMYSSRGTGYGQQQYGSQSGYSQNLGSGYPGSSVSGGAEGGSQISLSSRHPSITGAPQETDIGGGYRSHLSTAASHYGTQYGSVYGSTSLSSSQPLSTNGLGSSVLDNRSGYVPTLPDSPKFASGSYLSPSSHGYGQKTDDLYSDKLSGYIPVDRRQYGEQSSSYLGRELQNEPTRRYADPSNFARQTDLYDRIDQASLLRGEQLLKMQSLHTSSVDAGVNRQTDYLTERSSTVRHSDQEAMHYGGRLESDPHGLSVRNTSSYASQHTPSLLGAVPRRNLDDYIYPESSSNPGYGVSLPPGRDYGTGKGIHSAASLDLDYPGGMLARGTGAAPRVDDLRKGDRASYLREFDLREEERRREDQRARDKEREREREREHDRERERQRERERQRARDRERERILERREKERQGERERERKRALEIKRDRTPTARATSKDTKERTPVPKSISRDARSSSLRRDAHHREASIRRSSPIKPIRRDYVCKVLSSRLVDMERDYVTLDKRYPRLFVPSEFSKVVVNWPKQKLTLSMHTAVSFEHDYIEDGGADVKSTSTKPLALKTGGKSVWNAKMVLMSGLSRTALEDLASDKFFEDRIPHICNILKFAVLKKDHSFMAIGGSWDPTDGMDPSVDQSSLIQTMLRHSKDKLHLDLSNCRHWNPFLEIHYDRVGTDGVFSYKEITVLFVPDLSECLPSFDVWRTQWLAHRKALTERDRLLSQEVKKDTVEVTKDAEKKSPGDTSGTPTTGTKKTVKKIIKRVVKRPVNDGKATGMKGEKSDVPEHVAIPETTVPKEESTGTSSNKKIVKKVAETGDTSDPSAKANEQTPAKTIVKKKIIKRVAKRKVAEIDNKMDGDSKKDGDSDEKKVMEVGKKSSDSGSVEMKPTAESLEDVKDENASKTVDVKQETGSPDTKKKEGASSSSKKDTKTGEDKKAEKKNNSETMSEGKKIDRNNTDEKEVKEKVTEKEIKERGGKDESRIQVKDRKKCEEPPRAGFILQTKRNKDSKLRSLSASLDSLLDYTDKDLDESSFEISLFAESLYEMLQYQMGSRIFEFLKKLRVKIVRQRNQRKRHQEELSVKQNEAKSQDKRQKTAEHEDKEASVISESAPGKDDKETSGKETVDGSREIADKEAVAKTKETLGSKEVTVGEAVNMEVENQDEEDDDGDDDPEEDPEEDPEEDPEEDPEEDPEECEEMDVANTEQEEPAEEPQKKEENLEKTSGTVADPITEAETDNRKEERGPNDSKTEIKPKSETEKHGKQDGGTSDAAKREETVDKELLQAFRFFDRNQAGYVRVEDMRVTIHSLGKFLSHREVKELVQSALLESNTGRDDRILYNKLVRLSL
Description: recruitment into condensates in vitro (confocal fluorescence microscopy); Oregon Green-labeled EMB1579 (2.5 μM) with mCherry-DDB1B (500 nM) or mCherry-MSI4 (20 nM) in F-buffer (25 mM Hepes pH 8.0, 100 mM KCl, 100 mg/ml PEG 3350), 5 minutes, room temperature. To be noted: both partners purified.

B1: mCherry-DDB1B (natural protein, Arabidopsis thaliana, UniProt O49552 1-1088, looked up)
chain: MSVWNYAVTAQKPTCVTHSCVGNFTSPQELNLIVAKSTRIEIHLLSPQGLQTILDVPLYGRIATMELFRPHGEAQDFLFVATERYKFCVLQWDYESSELITRAMGDVSDRIGRPTDNGQIGIIDPDCRVIGLHLYDGLFKVIPFDNKGQLKEAFNIRLEELQVLDIKFLYGCTKPTIAVLYQDNKDARHVKTYEVSLKDKNFVEGPWSQNNLDNGADLLIPVPSPLCGVLIIGEETIVYCSANAFKAIPIRPSITKAYGRVDLDGSRYLLGDHAGLIHLLVITHEKEKVTGLKIELLGETSIASSISYLDNAVVFVGSSYGDSQLIKLNLQPDAKGSYVEILEKYVNLGPIVDFCVVDLERQGQGQVVTCSGAYKDGSLRIVRNGIGINEQASVELQGIKGMWSLKSSIDEAFDTFLVVSFISETRILAMNIEDELEETEIEGFLSEVQTLFCHDAVYNQLVQVTSNSVRLVSSTTRELRNKWDAPAGFSVNVATANASQVLLATGGGHLVYLEIGDGTLTEVKHVLLEYEVSCLDINPIGDNPNYSQLAAVGMWTDISVRIFVLPDLTLITKEELGGEIIPRSVLLCAFEGISYLLCALGDGHLLNFQLDTSCGKLRDRKKVSLGTRPITLRTFSSKSATHVFAASDRPAVIYSNNKKLLYSNVNLKEVSHMCPFNSAAFPDSLAIAREGELTIGTIDDIQKLHIRTIPIGEHARRICHQEQTRTFAISCLRNEPSAEESESHFVRLLDAQSFEFLSSYPLDAFECGCSILSCSFTDDKNVYYCVGTAYVLPEENEPTKGRILVFIVEEGRLQLITEKETKGAVYSLNAFNGKLLASINQKIQLYKWMLRDDGTRELQSECGHHGHILALYVQTRGDFIAVGDLMKSISLLIYKHEEGAIEERARDYNANWMTAVEILNDDIYLGTDNCFNIFTVKKNNEGATDEERARMEVVGEYHIGEFVNRFRHGSLVMKLPDSDIGQIPTVIFGTVSGMIGVIASLPQEQYAFLEKLQTSLRKVIKGVGGLSHEQWRSFNNEKRTAEAKGYLDGDLIESFLDLSRGKMEEISKGMDVQVEELCKRVEELTRLH
notes: DDB1B, Arabidopsis; amplified with DDB1B-EcoRI-F/DDB1B-SalI-R2 from pFGC5941-DDB1B-RFP and moved into pColdI behind mCherry; source: E. coli BL21 (DE3) (pColdI-mCherry-DDB1B), purified (Ni-NTA); not shown: mCherry, N-terminal, kept
With B1, the binding result is “binds”.

B2: mCherry-MSI4 (natural protein, Arabidopsis thaliana, UniProt O22607 1-507, looked up)
chain: MESDEAAAVSPQATTPSGGTGASGPKKRGRKPKTKEDSQTPSSQQQSDVKMKESGKKTQQSPSVDEKYSQWKGLVPILYDWLANHNLVWPSLSCRWGPQLEQATYKNRQRLYLSEQTDGSVPNTLVIANCEVVKPRVAAAEHISQFNEEARSPFVKKYKTIIHPGEVNRIRELPQNSKIVATHTDSPDVLIWDVETQPNRHAVLGAANSRPDLILTGHQDNAEFALAMCPTEPFVLSGGKDKSVVLWSIQDHITTIGTDSKSSGSIIKQTGEGTDKNESPTVGPRGVYHGHEDTVEDVAFSPTSAQEFCSVGDDSCLILWDARTGTNPVTKVEKAHDADLHCVDWNPHDDNLILTGSADNTVRLFDRRKLTANGVGSPIYKFEGHKAAVLCVQWSPDKSSVFGSSAEDGLLNIWDYDRVSKKSDRAAKSPAGLFFQHAGHRDKVVDFHWNASDPWTIVSVSDDCETTGGGGTLQIWRMSDLIYRPEEEVVAELEKFKSHVMTCASKP
notes: MSI4, Arabidopsis; amplified with MSI4-SalI-F/MSI4-XbaI-R2 from pEZS-NL-RFP-MSI4 and moved into pColdI-mCherry; also called recombinant MSI4 protein; source: E. coli BL21 (DE3) (pColdI-mCherry-MSI4), purified (Ni-NTA); not shown: mCherry, N-terminal, kept
B2: the binding result is on record as “binds”.

For the origin of these results see PMC7413564, “Phase separation of Arabidopsis EMB1579 controls transcription, mRNA splicing, and development” (PLoS Biology, 2020).
